Measured values as given in patent US20130281659.

Assays:
[1] = target: K48C, K63C-linked branched Ub trimer
[2] = target: K6C, K48C-linked branched Ub trimer
[3] = target: K11C, K48C-linked branched Ub trimer

Protein	DUB-catalyzed hydrolysis of Ub trimer, SDS-PAGE and western blot [1]	DUB-catalyzed hydrolysis of Ub trimer, SDS-PAGE and western blot [2]	DUB-catalyzed hydrolysis of Ub trimer, SDS-PAGE and western blot [3]
AMSH (protein) MSDHGDVSLPPEDRVRALSQLGSAVEVNEDIPPRRYFRSGVEIIRMASIYSEEGNIEHAFILYNKYITLFIEKLPKHRDYKSAVIPEKKDTVKKLKEIAFPKAEELKAELLKRYTKEYTEYNEEKKKEAEELARNMAIQQELEKEKQRVAQQKQQQLEQEQFHAFEEMIRNQELEKERLKIVQEFGKVDPGLGGPLVPDLEKPSLDVFPTLTVSSIQPSDCHTTVRPAKPPVVDRSLKPGALSNSESIPTIDGLRHVVVPGRLCPQFLQLASANTARGVETCGILCGKLMRNEFTITHVLIPKQSAGSDYCNTENEEELFLIQDQQGLITLGWIHTHPTQTAFLSSVDLHTHCSYQMMLPESVAIVCSPKFQETGFFKLTDHGLEEISSCRQKGFHPHSKDPPLFCSCSHVTVVDRAVTITDLR	the presence of a Ub appendage at position 48 does not influence cleavage of the K63C-linkage as indicated by the formation of Ub2 and Ub upon hydrolysis of the K48C, K63C-linked trimer		
IsoT (protein) MAELSEEALLSVLPTIRVPKAGDRVHKDECAFSFDTPESEGGLYICMNTFLGFGKQYVERHFNKTGQRVYLHLRRTRRPKEEDPATGTGDPPRKKPTRLAIGVEGGFDLSEEKFELDEDVKIVILPDYLEIARDGLGGLPDIVRDRVTSAVEALLSADSASRKQEVQAWDGEVRQVSKHAFSLKQLDNPARIPPCGWKCSKCDMRENLWLNLTDGSILCGRRYFDGSGGNNHAVEHYRETGYPLAVKLGTITPDGADVYSYDEDDMVLDPSLAEHLSHFGIDMLKMQKTDKTMTELEIDMNQRIGEWELIQESGVPLKPLFGPGYTGIRNLGNSCYLNSVVQVLFSIPDFQRKYVDKLEKIFQNAPTDPTQDFSTQVAKLGHGLLSGEYSKPVPESGDGERVPEQKEVQDGIAPRMFKALIGKGHPEFSTNRQQDAQEFFLHLINMVERNCRSSENPNEVFRFLVEEKIKCLATEKVKYTQRVDYIMQLPVPMDAALNKEELLEYEEKKRQAEEEKMALPELVRAQVPFSSCLEAYGAPEQVDDFWSTALQAKSVAVKTTRFASFPDYLVIQIKKFTFGLDWVPKKLDVSIEMPEELDISQLRGTGLQPGEEELPDIAPPLVTPDEPKGSLGFYGNEDEDSFCSPHFSSPTSPMLDESVIIQLVEMGFPMDACRKAVYYTGNSGAEAAMNWVMSHMDDPDFANPLILPGSSGPGSTSAAADPPPEDCVTTIVSMGFSRDQALKALRATNNSLERAVDWIFSHIDDLDAEAAMDISEGRSAADSISESVPVGPKVRDGPGKYQLFAFISHMGTSTMCGHYVCHIKKEGRWVIYNDQKVCASEKPPKDLGYIYFYQRVAS	IsoT efficiently processed all three trimers as evidenced by Western blot analysis	IsoT efficiently processed all three trimers as evidenced by Western blot analysis	IsoT efficiently processed all three trimers as evidenced by Western blot analysis
A20-OTU (protein) LVALKTNGDGNCLMHATSQYMWGVQDTDLVLRKALFSTLKETDTRNFKFRWQLESLKSQEFVETGLCYDTRNWNDEWDNLIKMASTDTPMARSGLQYNSLEEIHIFVLCNILRRPIIVISDKMLRSLESGSNFAPLKVGGIYLPLHWPAQECYRYPIVLGYDSHHFVPLVTL	A20-OTU cleaved the K48C-linkage in K11C, K48C and K48C, K63C-linked trimers	the same linkage remained intact in the K6C, K48C-linked trimer	A20-OTU cleaved the K48C-linkage in K11C, K48C and K48C, K63C-linked trimers
